± gives the standard deviation of the averaged measurements.
Tests used:
MCF7 = assay: percentage of EdU-negative (G0-arrested) nuclei per well, 72 h; higher = more G0 arrest; conditions: reference: sequence is the full UniProt precursor, the tested protein was the secreted form or ectodomain
hTERT-HMEC = assay: as above; conditions: reference: sequence is the full UniProt precursor, the tested protein was the secreted form or ectodomain
[1] = protein concentration 0.03125 µM
[2] = protein concentration 0.3125 µM
[3] = protein concentration 0.0225 µM
[4] = protein concentration 0.03108 µM
[5] = protein concentration 0.3108 µM
[6] = protein concentration 0.01025 µM
[7] = protein concentration 0.1025 µM
[8] = protein concentration 0.027265 µM
[9] = protein concentration 0.27265 µM
[10] = protein concentration 0.0357143 µM
[11] = protein concentration 0.357143 µM
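Note: secreted proteins added to cultured cells, EdU pulse at the end, nuclei found by Hoechst imaging, EdU status from nuclear versus surrounding ring intensity ratio, PBS as neutral control.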

MSSSCSGLSRVLVAVATALVSASSPCPQAWGPPGVQYGQPGRSVKLCCPGVTAGDPVSWFRDGEPKLLQGPDSGLGHELVLAQADSTDEGTYICQTLDGALGGTVTLQLGYPPARPVVSCQAADYENFSCTWSPSQISGLPTRYLTSYRKKTVLGADSQRRSPSTGPWPCPQDPLGAARCVVHGAEFWSQYRINVTEVNPLGASTRLLDVSLQSILRPDPPQGLRVESVPGYPRRLRASWTYPASWPCQPHFLLKFRLQYRPAQHPAWSTVEPAGLEEVITDAVAGLPHAVRVSARDFLDAGTWSTWSPEAWGTPSTGTIPKEIPAWGQLHTQPEVEPQVDSPAPPRPSLQPHPRLLDHRDSVEQVAVLASLGILSFLGLVAGALALGLWLRLRRGGKDGSPKPGFLASVIPVDRRPGAPNL
percentage of EdU-negative (MCF7; [1]): 26.9 ± 2%
percentage of EdU-negative (MCF7; [2]): 36.6 ± 0.72%
percentage of EdU-negative (hTERT-HMEC; [1]): 4.53 ± 0.46%
percentage of EdU-negative (hTERT-HMEC; [2]): 11.8 ± 0.14%

MPAFNRLFPLASLVLIYWVSVCFPVCVEVPSETEAVQGNPMKLRCISCMKREEVEATTVVEWFYRPEGGKDFLIYEYRNGHQEVESPFQGRLQWNGSKDLQDVSITVLNVTLNDSGLYTCNVSREFEFEAHRPFVKTTRLIPLRVTEEAGEDFTSVVSEIMMYILLVFLTLWLLIEMIYCYRKVSKAEEAAQENASDYLAIPSENKENSAVPVEE [Q9NY72]
percentage of EdU-negative (MCF7; [1]): 25.4 ± 0.68%
percentage of EdU-negative (MCF7; [2]): 25.4 ± 1.8%
percentage of EdU-negative (hTERT-HMEC; [1]): 4.7 ± 0.6%
percentage of EdU-negative (hTERT-HMEC; [2]): 4.76 ± 0.95%

MPRYVPLLLLLLLLRCSERGGGVNFGEKDAKVPGTWRDGVRVPGEGASWDSDRASPERRYGIVGLSQSISTKHPETSPKDSRIRENDVTADGRTTEDHITADPGTTEDSVTADPGTTEDNVTVDPGTTEGSVTADPATTKDYVSADPGTTKDSVTADPGTTENFVTADPGTTKDSITADPRTTEDSVTADPGTTKHSITVDPGTTEDSVTADPGTTKHSITADPGTTEDSVTADPGTTEDETTKHGDTHLL [E2RYF7]
percentage of EdU-negative (MCF7; [3]): 23.6 ± 2.3%
percentage of EdU-negative (MCF7; protein concentration 0.225 µM): 24.8 ± 0.67%
percentage of EdU-negative (hTERT-HMEC; [3]): 5.3 ± 1.4%
percentage of EdU-negative (hTERT-HMEC; protein concentration 0.225 µM): 5.54 ± 0.41%

MARSNLPLALGLALVAFCLLALPRDARARPQERMVGELRDLSPDDPQVQKAAQAAVASYNMGSNSIYYFRDTHIIKAQSQLVAGIKYFLTMEMGSTDCRKTRVTGDHVDLTTCPLAAGAQQEKLRCDFEVLVVPWQNSSQLLKHNCVQM
percentage of EdU-negative (MCF7; [1]): 26.7 ± 0.57%
percentage of EdU-negative (MCF7; [2]): 25.4 ± 1.2%
percentage of EdU-negative (hTERT-HMEC; [1]): 5.74 ± 0.7%
percentage of EdU-negative (hTERT-HMEC; [2]): 6.46 ± 0.57%

MEFLWAPLLGLCCSLAAADRHTVFWNSSNPKFRNEDYTIHVQLNDYVDIICPHYEDHSVADAAMEQYILYLVEHEEYQLCQPQSKDQVRWQCNRPSAKHGPEKLSEKFQRFTPFTLGKEFKEGHSYYYISKPIHQHEDRCLRLKVTVSGKITHSPQAHDNPQEKRLAADDPEVRVLHSIGHSAAPRLFPLAWTVLLLPLLLLQTP
percentage of EdU-negative (MCF7; [4]): 24.521 ± 0.0085%
percentage of EdU-negative (MCF7; [5]): 24.81 ± 0.061%
percentage of EdU-negative (hTERT-HMEC; [4]): 6.23 ± 0.24%
percentage of EdU-negative (hTERT-HMEC; [5]): 7.2445 ± 0.004%

MTVFLSFAFLAAILTHIGCSNQRRSPENSGRRYNRIQHGQCAYTFILPEHDGNCRESTTDQYNTNALQRDAPHVEPDFSSQKLQHLEHVMENYTQWLQKLENYIVENMKSEMAQIQQNAVQNHTATMLEIGTSLLSQTAEQTRKLTDVETQVLNQTSRLEIQLLENSLSTYKLEKQLLQQTNEILKIHEKNSLLEHKILEMEGKHKEELDTLKEEKENLQGLVTRQTYIIQELEKQLNRATTNNSVLQKQQLELMDTVHNLVNLCTKEGVLLKGGKREEEKPFRDCADVYQAGFNKSGIYTIYINNMPEPKKVFCNMDVNGGGWTVIQHREDGSLDFQRGWKEYKMGFGNPSGEYWLGNEFIFAITSQRQYMLRIELMDWEGNRAYSQYDRFHIGNEKQNYRLYLKGHTGTAGKQSSLILHGADFSTKDADNDNCMCKCALMLTGGWWFDACGPSNLNGMFYTAGQNHGKLNGIKWHYFKGPSYSLRSTTMMIRPLDF
percentage of EdU-negative (MCF7; [6]): 25.2 ± 0.66%
percentage of EdU-negative (MCF7; [7]): 26.4 ± 0.81%
percentage of EdU-negative (hTERT-HMEC; [6]): 4.915 ± 0.017%
percentage of EdU-negative (hTERT-HMEC; [7]): 8.6 ± 2%

MPDTMLPACFLGLLAFSSACYFQNCPRGGKRAMSDLELRQCLPCGPGGKGRCFGPSICCADELGCFVGTAEALRCQEENYLPSPCQSGQKACGSGGRCAAFGVCCNDESCVTEPECREGFHRRARASDRSNATQLDGPAGALLLRLVQLAGAPEPFEPAQPDAY
percentage of EdU-negative (MCF7; [8]): 24 ± 0.36%
percentage of EdU-negative (MCF7; [9]): 24.4 ± 0.13%
percentage of EdU-negative (hTERT-HMEC; [8]): 5.39 ± 0.55%
percentage of EdU-negative (hTERT-HMEC; [9]): 5.52 ± 1.1%

MLTTLLPILLLSGWAFCSQDASDGLQRLHMLQISYFRDPYHVWYQGNASLGGHLTHVLEGPDTNTTIIQLQPLQEPESWARTQSGLQSYLLQFHGLVRLVHQERTLAFPLTIRCFLGCELPPEGSRAHVFFEVAVNGSSFVSFRPERALWQADTQVTSGVVTFTLQQLNAYNRTRYELREFLEDTCVQYVQKHISAENTKGSQTSRSYTSLVLGVLVGSFIIAGVAVGIFLCTGGRRC [Q9UNN8]
percentage of EdU-negative (MCF7; [10]): 24.2 ± 1.7%
percentage of EdU-negative (MCF7; [11]): 25.3 ± 1.2%
percentage of EdU-negative (hTERT-HMEC; [10]): 4.92 ± 0.17%
percentage of EdU-negative (hTERT-HMEC; [11]): 6.22 ± 0.072%

MICQKFCVVLLHWEFIYVITAFNLSYPITPWRFKLSCMPPNSTYDYFLLPAGLSKNTSNSNGHYETAVEPKFNSSGTHFSNLSKTTFHCCFRSEQDRNCSLCADNIEGKTFVSTVNSLVFQQIDANWNIQCWLKGDLKLFICYVESLFKNLFRNYNYKVHLLYVLPEVLEDSPLVPQKGSFQMVHCNCSVHECCECLVPVPTAKLNDTLLMCLKITSGGVIFQSPLMSVQPINMVKPDPPLGLHMEITDDGNLKISWSSPPLVPFPLQYQVKYSENSTTVIREADKIVSATSLLVDSILPGSSYEVQVRGKRLDGPGIWSDWSTPRVFTTQDVIYFPPKILTSVGSNVSFHCIYKKENKIVPSKEIVWWMNLAEKIPQSQYDVVSDHVSKVTFFNLNETKPRGKFTYDAVYCCNEHECHHRYAELYVIDVNINISCETDGYLTKMTCRWSTSTIQSLAESTLQLRYHRSSLYCSDIPSIHPISEPKDCYLQSDGFYECIFQPIFLLSGYTMWIRINHSLGSLDSPPTCVLPDSVVKPLPPSSVKAEITINIGLLKISWEKPVFPENNLQFQIRYGLSGKEVQWKMYEVYDAKSKSVSLPVPDLCAVYAVQVRCKRLDGLGYWSNWSNPAYTVVMDIKVPMRGPEFWRIINGDTMKKEKNVTLLWKPLMKNDSLCSVQRYVINHHTSCNGTWSEDVGNHTKFTFLWTEQAHTVTVLAINSIGASVANFNLTFSWPMSKVNIVQSLSAYPLNSSCVIVSWILSPSDYKLMYFIIEWKNLNEDGEIKWLRISSSVKKYYIHDHFIPIEKYQFSLYPIFMEGVGKPKIINSFTQDDIEKHQSDAGLYVIVPVIISSSILLLGTLLISHQRMKKLFWEDVPNPKNCSWAQGLNFQKPETFEHLFIKHTASVTCGPLLLEPETISEDISVDTSWKNKDEMMPTTVVSLLSTTDLEKGSVCISDQFNSVNFSEAEGTEVTYEDESQRQPFVKYATLISNSKPSETGEEQGLINSSVTKCFSSKNSPLKDSFSNSSWEIEAQAFFILSDQHPNIISPHLTFSEGLDELLKLEGNFPEENNDKKSIYYLGVTSIKKRESGVLLTDKSRVSCPFPAPCLFTDIRVLQDSCSHFVENNINLGTSSKKTFASYMPQFQTCSTQTHKIMENKMCDLTV
percentage of EdU-negative (MCF7; protein concentration 0.012 µM): 23.4 ± 3.1%
percentage of EdU-negative (MCF7; protein concentration 0.12 µM): 21.2 ± 0.96%
percentage of EdU-negative (hTERT-HMEC; protein concentration 0.012 µM): 5.06 ± 0.43%
percentage of EdU-negative (hTERT-HMEC; protein concentration 0.12 µM): 5.17 ± 0.64%

MEPQLGPEAAALRPGWLALLLWVSALSCSFSLPASSLSSLVPQVRTSYNFGRTFLGLDKCNACIGTSICKKFFKEEIRSDNWLASHLGLPPDSLLSYPANYSDDSKIWRPVEIFRLVSKYQNEISDRRICASASAPKTCSIERVLRKTERFQKWLQAKRLTPDLVQGLASPLLRCPSQRLLDRVVRRYAEVADAGSIFMDHFTDRDKLRLLYTLAVNSHPILLQIFPGAEGWPLPKYLGSCGRFLVSTSTRPLQEFYDAPPDQAADLAYQLLGVLESLRSNDLNYFFYFTHIDAGMFGVFNNGHLFIRDASAVGVIDKQEGSQEANRAGENKDIFSCLVSGCQAQLPSCESISEKQSLVLVCQKLLPRLLQGRFPSPVQDDIDSILVQCGDSIRPDPEVLGAASQLKDILRPLRTCDSRFAYRYPDCKYNDKF [Q9H7Y0]
percentage of EdU-negative (MCF7; [3]): 25.8 ± 2.1%
percentage of EdU-negative (MCF7; protein concentration 0.225 µM): 25.3 ± 2%
percentage of EdU-negative (hTERT-HMEC; [3]): 5.59 ± 0.064%
percentage of EdU-negative (hTERT-HMEC; protein concentration 0.225 µM): 5.31 ± 0.38%

MGLIWLLLLSLLEPGWPAAGPGARLRRDAGGRGGVYEHLGGAPRRRKLYCATKYHLQLHPSGRVNGSLENSAYSILEITAVEVGIVAIRGLFSGRYLAMNKRGRLYASEHYSAECEFVERIHELGYNTYASRLYRTVSSTPGARRQPSAERLWYVSVNGKGRPRRGFKTRRTQKSSLFLPRVLDHRDHEMVRQLQSGLPRPPGKGVQPRRRRQKQSPDNLEPSHVQASRLGSQLEASAH
percentage of EdU-negative (MCF7; protein concentration 0.01 µM): 26.1 ± 0.46%
percentage of EdU-negative (MCF7; protein concentration 0.1 µM): 27.4 ± 0.42%
percentage of EdU-negative (hTERT-HMEC; protein concentration 0.01 µM): 5.1 ± 0.81%
percentage of EdU-negative (hTERT-HMEC; protein concentration 0.1 µM): 6.93 ± 0.14%

MAAAWTVVLVTLVLGLAVAGPVPTSKPTTTGKGCHIGRFKSLSPQELASFKKARDALEESLKLKNWSCSSPVFPGNWDLRLLQVRERPVALEAELALTLKVLEAAAGPALEDVLDQPLHTLHHILSQLQACIQPQPTAGPRPRGRLHHWLHRLQEAPKKESAGCLEASVTFNLFRLLTRDLKYVADGNLCLRTSTHPEST [Q8IU54]
percentage of EdU-negative (MCF7; [10]): 25.7 ± 0.7%
percentage of EdU-negative (MCF7; [11]): 26.7 ± 1.7%
percentage of EdU-negative (hTERT-HMEC; [10]): 7.03 ± 0.88%
percentage of EdU-negative (hTERT-HMEC; [11]): 20.5 ± 5.7%

MQCWQQPFLRFLQQPFFLATASLAGSSSSFNVLIPKRDEDGDGEGPGDVTAGVSRAAGSPSGWEAPWVQQPRCCRRATPVCCAGQGPPRSLQQGGSEVLLGQLCSPEPDWLPSSGPKVAKQVFQVAAELLQHPEHFVPSSVPEGCVHKPGSTCDGSLKGRAYPSCVPKRDPEHSREESHPLSG [Q6UXR6]
percentage of EdU-negative (MCF7; [3]): 26.15 ± 0.12%
percentage of EdU-negative (MCF7; protein concentration 0.225 µM): 26.1 ± 0.63%
percentage of EdU-negative (hTERT-HMEC; [3]): 4.87 ± 0.51%
percentage of EdU-negative (hTERT-HMEC; protein concentration 0.225 µM): 4.95 ± 1%
